What was measured:
[1] = target: LH receptors on bovine granulosa cells and bovine small luteal cells (bovine) (UniProt Q28005); test: cell-based or functional assay
[2] = target: T1, GnRH receptor of rat pituitary membranes (rat) (UniProt P30969); test: radioligand displacement on rat pituitary membranes, equimolar concentrations
T1 sequence (looked up): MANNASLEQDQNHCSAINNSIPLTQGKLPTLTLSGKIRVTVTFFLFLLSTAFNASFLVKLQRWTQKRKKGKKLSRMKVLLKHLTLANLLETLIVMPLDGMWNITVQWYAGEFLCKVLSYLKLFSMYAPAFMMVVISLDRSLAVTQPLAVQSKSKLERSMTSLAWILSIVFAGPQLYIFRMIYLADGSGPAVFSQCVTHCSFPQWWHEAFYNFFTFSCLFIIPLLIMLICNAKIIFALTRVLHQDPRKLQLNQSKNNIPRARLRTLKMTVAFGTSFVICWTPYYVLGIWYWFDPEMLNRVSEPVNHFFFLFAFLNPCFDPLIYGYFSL

Sequence of UniProt Q28005 (Q28005 27-701): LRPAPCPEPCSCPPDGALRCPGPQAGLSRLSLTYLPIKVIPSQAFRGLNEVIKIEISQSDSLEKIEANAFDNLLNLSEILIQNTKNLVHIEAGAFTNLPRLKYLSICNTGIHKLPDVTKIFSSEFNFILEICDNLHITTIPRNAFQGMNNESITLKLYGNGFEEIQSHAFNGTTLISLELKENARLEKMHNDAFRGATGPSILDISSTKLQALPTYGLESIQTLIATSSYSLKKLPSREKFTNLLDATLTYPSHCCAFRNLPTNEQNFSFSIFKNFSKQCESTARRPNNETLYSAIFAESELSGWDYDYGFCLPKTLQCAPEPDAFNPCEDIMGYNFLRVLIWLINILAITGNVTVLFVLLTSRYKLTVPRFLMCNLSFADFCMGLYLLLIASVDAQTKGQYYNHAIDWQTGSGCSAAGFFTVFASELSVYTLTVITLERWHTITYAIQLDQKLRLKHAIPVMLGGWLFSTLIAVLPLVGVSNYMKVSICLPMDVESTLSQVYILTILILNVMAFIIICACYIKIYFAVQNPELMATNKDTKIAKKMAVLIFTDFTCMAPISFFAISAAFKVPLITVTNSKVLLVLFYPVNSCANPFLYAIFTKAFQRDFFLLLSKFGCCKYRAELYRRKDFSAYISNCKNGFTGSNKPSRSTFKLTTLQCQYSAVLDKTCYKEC

Row | cpm displaced relative to native GnRH [2] | Substance | cell killing of bovine small luteal cells after 22 hr (Trypan Blue exclusion) (fold vs hecate alone) [1]
1 | – | hecate-bLH conjugate (peptide) | 2
2 | 187% | D-Lys6GnRH (peptide) | –

From patent EP1878438A2
